From patent US20200347146A1 (published 2020)

Experiments:
[1] = molecular target: human PD-L1 on PD-L1 positive Raji cells (human, UniProt Q9NZQ7 19-290); assay: flow cytometry cell binding
[2] = molecular target: human PD-L1 protein (soluble) (human, UniProt Q9NZQ7 19-238); assay: ELISA
[3] = molecular target: T1, human CD73 protein (soluble) (human, UniProt P21589 27-549); assay: ELISA
T1 chain: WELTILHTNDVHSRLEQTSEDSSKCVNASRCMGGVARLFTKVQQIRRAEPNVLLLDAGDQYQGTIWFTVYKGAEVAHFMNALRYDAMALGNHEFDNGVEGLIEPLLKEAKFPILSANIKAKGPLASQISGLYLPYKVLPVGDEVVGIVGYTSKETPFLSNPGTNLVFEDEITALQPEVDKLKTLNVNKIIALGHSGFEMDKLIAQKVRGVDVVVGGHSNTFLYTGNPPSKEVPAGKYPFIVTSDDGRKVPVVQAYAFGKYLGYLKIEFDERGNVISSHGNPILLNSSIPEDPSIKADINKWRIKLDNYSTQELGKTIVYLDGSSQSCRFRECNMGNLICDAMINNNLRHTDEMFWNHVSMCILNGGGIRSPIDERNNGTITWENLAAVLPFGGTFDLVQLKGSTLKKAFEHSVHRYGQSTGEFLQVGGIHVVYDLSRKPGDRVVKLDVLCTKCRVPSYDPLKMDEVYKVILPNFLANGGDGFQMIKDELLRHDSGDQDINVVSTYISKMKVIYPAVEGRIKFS

[4] = molecular target: T2, CD73 on the surface of A375 cells (UniProt P21589 27-549); assay: flow cytometry cell binding
T2 chain: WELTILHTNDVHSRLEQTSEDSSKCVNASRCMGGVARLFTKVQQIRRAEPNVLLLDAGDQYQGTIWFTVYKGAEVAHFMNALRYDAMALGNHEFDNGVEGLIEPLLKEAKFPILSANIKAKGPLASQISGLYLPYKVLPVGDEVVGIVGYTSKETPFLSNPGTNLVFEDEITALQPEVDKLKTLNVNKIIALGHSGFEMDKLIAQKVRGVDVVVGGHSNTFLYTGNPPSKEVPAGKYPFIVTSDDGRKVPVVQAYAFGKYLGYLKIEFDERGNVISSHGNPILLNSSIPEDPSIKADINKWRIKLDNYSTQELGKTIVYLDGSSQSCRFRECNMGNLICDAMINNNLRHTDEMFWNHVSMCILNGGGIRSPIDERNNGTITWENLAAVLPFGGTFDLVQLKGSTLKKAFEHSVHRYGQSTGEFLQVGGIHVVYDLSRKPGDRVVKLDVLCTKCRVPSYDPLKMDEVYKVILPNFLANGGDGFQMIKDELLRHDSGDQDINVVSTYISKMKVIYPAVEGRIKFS

Chain of human PD-L1 on PD-L1 positive Raji cells (Q9NZQ7 19-290): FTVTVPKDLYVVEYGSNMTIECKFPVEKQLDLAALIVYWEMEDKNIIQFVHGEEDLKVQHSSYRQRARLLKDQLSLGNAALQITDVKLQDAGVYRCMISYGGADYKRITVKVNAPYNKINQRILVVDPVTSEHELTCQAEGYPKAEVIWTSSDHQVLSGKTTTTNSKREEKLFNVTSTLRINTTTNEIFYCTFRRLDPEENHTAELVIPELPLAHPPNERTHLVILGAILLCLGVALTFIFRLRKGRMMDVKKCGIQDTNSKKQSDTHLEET
Chain of human PD-L1 protein (soluble) (Q9NZQ7 19-238): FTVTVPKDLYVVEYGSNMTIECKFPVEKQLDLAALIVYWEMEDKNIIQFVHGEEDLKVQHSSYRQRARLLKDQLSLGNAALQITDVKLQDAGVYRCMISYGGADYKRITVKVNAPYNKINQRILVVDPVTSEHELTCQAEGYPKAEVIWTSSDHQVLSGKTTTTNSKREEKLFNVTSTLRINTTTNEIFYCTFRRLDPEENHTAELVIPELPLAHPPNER

B1: H12(PDL1) (monospecific anti-PD-L1 antibody with the H12 VH and H12 VL) (antibody, V domains shown)
VH: EVQLVESGGGLVQPGGSLRLSCAASGFTFSSYDMSWVRQAPGKSLEWVATISDAGGYIYYRDSVKGRFTISRDNAKNSLYLQMNSLRDEDTAVYICARELPWRYALDYWGQGTTVTVSS
VL: DIQMTQSPSSLSASVGDRVTITCKASQDVTPAVAWYQQKPGKAPKLLIYSTSSRYTGVPSRFSGSGSGTDFTFTISSLQPEDIATYYCQQHYTTPLTFGQGTKLEIK
[1]
  EC50: 0.0237 nM
[2]
  EC50: 0.00948 nM

B2: hu309 (monospecific anti-CD73 antibody with the 309 VH and 309 VL) (antibody, V domains shown)
VH: EVQLQESGPGLVKPSETLSLTCAVSGYSITSGYYWNWIRQPPGKKLEWMGYINYGGSNGYNPSLKSRITISRDTSKNQFSLKLSSVTAADTAVYYCARDYDAYYEALDDWGQGTTVTVSS
VL: EIVLSQSPATLSLSPGERATLSCRASSRVNYMHWYQQKPGQSPRPWISATSNLASGVPARFSGSGSGTSYTLTISSLEPEDFAVYYCQQWSSNPPTFGGGTKVEIK
[3]
  EC50: 0.0575 nM
[4]
  EC50: 2.06 nM

B3: anti-CD73/PD-L1 bispecific antibody 309-H12 (structure A of FIG. 1) (bispecific antibody)
heavy: not shown
light: EIVLSQSPATLSLSPGERATLSCRASSRVNYMHWYQQKPGQSPRPWISATSNLASGVPARFSGSGSGTSYTLTISSLEPEDFAVYYCQQWSSNPPTFGGGTKVEIKRTVAAPSVFIFPPSDEQLKSGTASVVCLLNNFYPREAKVQWKVDNALQSGNSQESVTEQDSKDSTYSLSSTLTLSKADYEKHKVYACEVTHQGLSSPVTKSFNRGEC
[3]
  EC50: 0.0715 nM
[4]
  EC50: 2.24 nM
[1]
  EC50: 0.255 nM
[2]
  EC50: 0.179 nM
